Data on 14 molecules can be found in US20230227540A1 (ABL BIO, published 2023).

The target of experiment [1] is T1, α-syn aggregate (human, UniProt P37840 1-140). Briefly: ELISA (Example 2-2), column Fibrils. As to the method:
ELISA analysis was performed to quantitatively analyze the binding affinity of the antibody of the present invention to the antigen. For this, alpha-synuclein antibody of the present invention was coated on a 96-well plate at a concentration of 1 mg/ml and treated with alpha, synuclein fibril aggregates at 10, 100, 1000 and 10,000 ng/ml. After washing with PBS, streptavidin conjugated with HRP and secondary antibody conjugate with biotin was treated and then reacted with TMB as a substrate. The absorbance was measured.
For orientation: ELISA stands for enzyme-linked immunosorbent assay.

The target in experiment [2] is α-syn monomer (human, UniProt P37840 1-140). Briefly: ELISA (Example 2-2), column Monomers.
In experiment [3] the target is T1, α-syn aggregate. Kind of experiment: Octet (BLI), α-syn aggregate (Example 2-6). The procedure: Specifically, the running buffer was 1 x KB buffer (cat. 18-1092) or 1 x PBS buffer at 1000 rpm, and the immobilization buffer was sodium acetate, pH 5 (10 mM, Cat 18-1068. α-syn monomers was immobilized the α-syn antigen, and fibrils was immobilized the test antibody. The target concentrations were 20 µg/ml for the monomer and 0.4 µg/ml for the fibril. The kinetics concentration was diluted sequentially two times from 50 nM for monomers and from 100 nM for fibrils, to give 7 points in total, respectively. Association/dissociation time was 5 min / 20 min for monomer and 5 min / 25 min for fibril. Biosensor was ARG2 and fitting was performed using 1: 1 fitting model.
Octet analysis was performed as described in Examples 2-4 using the ScFV anti-Syn antibodies selected in Example 1-2.
On the technique in general: Biolayer interferometry detects binding as a change in optical thickness at a sensor tip.

In experiment [4] the target is T1, α-syn aggregate. Kind of experiment: BIAcore (SPR), 1:1 binding model (Example 2-3), column Fibrils. The procedure:
Quantitative analysis of the binding of alpha-synuclein antibody prepared in Example 1 to monomer and aggregate antigen was performed using BIAcore analysis.
The used instrument was T200 (GE Healthcare, S / N: 1565888). Protein A is used as a chip (GE Healthcare, Cat. 29-1275-56). 10 mM Glycine-HCl pH 1.5 (GE Healthcare, Cat. BR-1003-54) was regeneration buffer. The running buffer, analyte dilution, and the sample dilution buffer were HBS-EP. The α-syn antibodies (3A9, 9B11 and 11F11) prepared in Example 1 were diluted with 1 x HBS-EP (GE Healthcare, Cat. BR-1006-69), and alpha-synuclein monomer (1 mg/ml) and fibril protein (3 mg / ml) were serially diluted in duplicate and analyzed at 6 concentrations (0, 0.39, 1.56, 6.25, 25, 100 nM) including 0 nM in total. For the capture, the monomer was for RU of 800 (theoretical), and a fibril was for RU of 100 (theoretical). The capture phase was performed at contact time of 60 seconds, a flow rate of 30 µl / min, and a stabilization period of 180 seconds. The association phase was performed at the association time of 120 seconds and the flow rate was 30 µl/min. The dissociation phase was performed at the dissociation time of 360 seconds and the flow rate of 30 µl/min. The regeneration phase was performed twice time at the regeneration time of 240 seconds (primary) and 60 seconds (secondary) and a flow rate of 30 µl/min. The fitting was carried out suing 1: 1 binding model, and the evaluation software was BIACore T200 Evaluation software (GE healthcare).
On the technique in general: Surface plasmon resonance follows binding to a sensor surface in real time, without labels.

Usually EC50 stands for the concentration giving half of the maximal effect. A high value points to weaker potency. Usually Kd stands for the equilibrium constant for the complex coming apart.

Where a chain is given by its changes, count along the chain named. Several values for one entry are separate records, joined by “and”; a condition that tells them apart may be missing. Identical values can stand only once.

B1: 10F10 (antibody, IgG2a, V domains shown)
VH: EVQLQESGPGLVKPSQSLSLTCSVTGYSITGGFYWNWIRQFPGNNLEWMGYINYDGSSDYSPSLKNRISITRDTSKNQFFLNLNSVTTEDTATYYCVRGDYDWGQGTTLTVSS
VL: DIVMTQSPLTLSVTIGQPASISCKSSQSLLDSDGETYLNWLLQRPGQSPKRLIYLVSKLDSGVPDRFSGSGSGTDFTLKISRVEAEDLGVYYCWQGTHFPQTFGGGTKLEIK
notes: Only the variable domains are tied to the clone as tested; also called mouse monoclonal anti α-Syn antibody 10F10
B1: the concentration giving a half-maximal response (EC50) in experiment [1] is 0.087 nM and 0.0131 µg/mL; in experiment [2], 0.0233 µg/mL and 0.155 nM. This molecule also registered an equilibrium dissociation constant (Kd) in experiment [3] of 0.81 nM.

B2: DG5 (scFv, V domains shown)
VH: EVQLLESGGGLVQPGGSLRLSCAASGFTFSNYAMSWVRQAPGKGLEWVSVISPGSGNTYYADSVKGRFTISRDNSKNTLYLQMNSLRAEDTAVYYCARVTIACPTKRCSYSNGMDVWGQGTLVTVSS
VL: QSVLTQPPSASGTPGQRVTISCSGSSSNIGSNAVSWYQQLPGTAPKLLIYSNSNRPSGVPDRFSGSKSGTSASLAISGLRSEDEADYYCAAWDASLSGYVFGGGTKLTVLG
notes: Clone from a human scFv phage library; also called ScFV anti α-Syn antibody DG5
For B2, binding in experiment [3] was put at a Kd of 1.26 nM.

B3: AC8 (scFv, V domains shown)
VH: EVQLLESGGGLVQPGGSLRLSCAASGFTFSDYSMSWVRQAPGKGLEWVSGISSGGSSKYYADSVKGRFTISRDNSKNTLYLQMNSLRAEDTAVYYCAKIFHNFDYWGQGTLVTVSS
VL: QSVLTQPPSASGTPGQRVTISCSGSSSNIGSNNVYWYQQLPGTAPKLLIYYDSQRPSGVPDRFSGSKSGTSASLAISGLRSEDEADYYCASWDASLSAYVFGGGTKLTVLG
notes: Clone from a human scFv phage library; The screen used soluble HA-tagged scFv; The dot blot was detected with anti-human Fc-HRP, so an Fc-bearing format may have been used there; also called ScFV anti α-Syn antibody AC8
In experiment [3], B3 came in with an equilibrium dissociation constant (Kd) of 0.24 nM. Compared with the last molecule, the Kd is about 5.2-fold lower.

B4: DG8 (scFv, V domains shown)
VH: EVQLLESGGGLVQPGGSLRLSCAASGFTFSDHAMSWVRQAPGKGLEWVSVISHGNGSKYYADSVKGRFTISRDNSKNTLYLQMNSLRAEDTAVYYCARVASRCRRGRCSYSDGMDVWGQGTLVTVSS
VL: B3 VL with N33S, Y35S, Y51A, D52N, S53N, Q54N, A90G, S91A, A94S
notes: Clone from a human scFv phage library; also called ScFV anti α-Syn antibody DG8
B4 came in with a Kd in experiment [3] of 3.8 nM.

B5: AD2 (scFv, V domains shown)
VH: B3 VH with D31N, S33A, G50A, S53H, G54S, K98R, I99S, F100G, H101N
VL: B3 VL with S23T, S31N, N33S, Y35S, Y51S, S53N, Q54N, A90G, A98G
notes: Clone from a human scFv phage library; also called ScFV anti α-Syn antibody AD2
Consider B5, for which, in experiment [3], binding was characterised by a dissociation constant (Kd) of 1.67 nM. This Kd lies about 2.3-fold lower than the previous one.

B6: AA9 (scFv, V domains shown)
VH: EVQLLESGGGLVQPGGSLRLSCAASGFTFSSYSMSWVRQAPGKGLEWVSAIYPGSSNKYYADSVKGRFTISRDNSKNTLYLQMNSLRAEDTAVYYCARHAATFDYWGQGTLVTVSS
VL: B3 VL with N33Y, Y35S, Y51G, S53N, Q54K, A90G, S91A, A94D, A98G
notes: Clone from a human scFv phage library; also called ScFV anti α-Syn antibody AA9
B6 showed a Kd in experiment [3] of 0.88 nM. This Kd lies about 1.9-fold lower than the previous one.

B7: DA9 (scFv, V domains shown)
VH: B2 VH with G54S, S55D, G56S, I101L, A102S, P104R, T105A, K106S
VL: B3 VL with S26P, S31N, N33S, Y35S, Y51A, D52N, Q54H, A90G, S97N, A98G
notes: Clone from a human scFv phage library; also called ScFV anti α-Syn antibody DA9
B7 gave a Kd in experiment [3] of 4.31 nM.

B8: DG11 (scFv, V domains shown)
VH: B4 VH with H32Y, H53P, N55S, R98K, A100T, S101I, R102S, R104A, G106M, S111A
VL: B3 VL with S23T, N33S, Y35S, Y51A, D52N, Q54N, S91A
notes: Clone from a human scFv phage library; also called ScFV anti α-Syn antibody DG11
For B8, in experiment [3], the Kd turned out to be 2.66 nM.

B9: AE8 (scFv, V domains shown)
VH: EVQLLESGGGLVQPGGSLRLSCAASGFTFSNYAMSWVRQAPGKGLEWVSAISSGGGNIYYADSVKGRFTISRDNSKNTLYLQMNSLRAEDTAVYYCARRPLYFDYWGQGTLVTVSS
VL: B3 VL with S31N, N33S, Y35N, Y51A, D52N, S53N, Q54N, A90G, S97N, A98G
notes: Clone from a human scFv phage library; also called ScFV anti α-Syn antibody AE8
For B9, the Kd in experiment [3] turned out to be 0.39 nM. This Kd is about 6.8-fold lower than that of the molecule before.

B10: AD7 (scFv, V domains shown)
VH: B9 VH with N31G, S53P, G54N, I58K, L101V
VL: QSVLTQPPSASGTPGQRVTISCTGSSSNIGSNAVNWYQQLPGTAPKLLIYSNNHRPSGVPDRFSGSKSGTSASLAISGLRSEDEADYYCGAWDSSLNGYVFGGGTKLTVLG
notes: Clone from a human scFv phage library; also called ScFV anti α-Syn antibody AD7
B10 returned a dissociation constant Kd in experiment [3] of 0.17 nM. This Kd is about 2.3-fold lower than that of the molecule before.

B11: 1E4 (antibody, V domains shown)
VH: EVQLQESGAELVRPGTSVKVSCKASGYAFTNYLIEWVKQRPGQGLEWIGVINPGSGGTNYNEKFKGKATLTADKSSSTAYMQLSSLTSDDSAVYFCASGNYDTYWGQGTLVTVSA
VL: DIVMTQSPLSLPVSLGDQASISCRSSQSLVHSNGNTYLHWYLQKPGQSPKLLIYKVSNRFSGVPDRFSGSGSGTDFTLKISRVEAEDLGVYFCSQSTHVPRTFGGGTKLEIK
notes: Antibody purified from a mouse hybridoma, raised against the full-length (140 residues) α-Syn aggregate; Only the variable domains are tied to the clone as tested; also called mouse monoclonal anti α-Syn antibody 1E4
Turning to B11, the concentration giving a half-maximal response (EC50) in experiment [1] was 0.0245 µg/mL and 0.163 nM. In experiment [3], this molecule had a Kd of 0.18 nM.

B12: 9B11 (antibody, V domains shown)
VH: EVQLQESGGGLVQPKGSLKLSCAASGFTFNTYAMNWVRQAPGKGLEWVARIRSKSNNYATYYADSVKDRFTISRDDSQSMLYLQMNNLKTEDTAMYYCVRQDFDYWGQGTTLTVSS
VL: B11 VL with R101L, G105A, I111Q
notes: Antibody purified from a mouse hybridoma, raised against the full-length α-Syn aggregate; Only the variable domains are tied to the clone as tested; also called mouse monoclonal anti α-Syn antibody 9B11
As for B12, the EC50 in experiment [1] was 0.185 µg/mL and 1.23 nM. The Kd in experiment [3] worked out at 0.018 nM; in experiment [4] it was 0.904 nM.

B13: 11F11 (antibody, IgG2b, V domains shown)
VH: EVQLQESGGGLVQPGGSLRLSCATSGFTFSDFYMEWVRQPPGKRLEWIAASRNKANDYTTEYSASVKGRFIVSRDTSQSILYLQMNALRAEDTAIYYCARDAHGKPFAYWGQGTLVTVSA
VL: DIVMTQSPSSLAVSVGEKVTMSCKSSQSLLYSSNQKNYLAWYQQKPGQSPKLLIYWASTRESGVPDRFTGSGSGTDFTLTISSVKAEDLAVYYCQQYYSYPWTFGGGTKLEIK
notes: Only the variable domains are tied to the clone as tested; also called mouse monoclonal anti α-Syn antibody 11F11
Consider B13, for which the EC50 in experiment [1] was 0.327 µg/mL and 2.18 nM. Besides, the figures for the dissociation constant Kd in experiment [3] and in experiment [4] were 0.16 nM and 2.87 nM, respectively.

B14: 3A9 (antibody, V domains shown)
VH: EVQLQESGGGLVKPGGSLKLSCAASGFTFSSYAMSWVRQTPEKRLEWVATISNGGGYTYYPDSVKGRFTISRDNAKNTLYLQMSSLRSEDTAMYYCARHITTVRPTKYFDYWGQGTTLTVSS
VL: DIVMTQSPKFMSTSVGDRVSITCKASQNVGTTVAWYQQKPGQSPKLLIYSASNRYTGVPDRFTGSGSGTDFTLTISNMQSEDLADYFCQQYSNYPLTFGAGTKLELR
notes: Only the variable domains are tied to the clone as tested; also called mouse monoclonal anti α-Syn antibody 3A9
In the case of B14, in experiment [1], the concentration for a half-maximal effect (EC50) is 0.319 µg/mL and 2.13 nM. Moreover, the dissociation constant Kd in experiment [3] is 0.13 nM; in experiment [4], 1.32 nM.
